# Reference: paper doi:10.1101/2025.10.08.681084
# Biological target: recombinant Nrf2-6×his (human) (UniProt Q16236)
# Assay: pull-down
# Sequence of UniProt Q16236 (Q16236 whole entry): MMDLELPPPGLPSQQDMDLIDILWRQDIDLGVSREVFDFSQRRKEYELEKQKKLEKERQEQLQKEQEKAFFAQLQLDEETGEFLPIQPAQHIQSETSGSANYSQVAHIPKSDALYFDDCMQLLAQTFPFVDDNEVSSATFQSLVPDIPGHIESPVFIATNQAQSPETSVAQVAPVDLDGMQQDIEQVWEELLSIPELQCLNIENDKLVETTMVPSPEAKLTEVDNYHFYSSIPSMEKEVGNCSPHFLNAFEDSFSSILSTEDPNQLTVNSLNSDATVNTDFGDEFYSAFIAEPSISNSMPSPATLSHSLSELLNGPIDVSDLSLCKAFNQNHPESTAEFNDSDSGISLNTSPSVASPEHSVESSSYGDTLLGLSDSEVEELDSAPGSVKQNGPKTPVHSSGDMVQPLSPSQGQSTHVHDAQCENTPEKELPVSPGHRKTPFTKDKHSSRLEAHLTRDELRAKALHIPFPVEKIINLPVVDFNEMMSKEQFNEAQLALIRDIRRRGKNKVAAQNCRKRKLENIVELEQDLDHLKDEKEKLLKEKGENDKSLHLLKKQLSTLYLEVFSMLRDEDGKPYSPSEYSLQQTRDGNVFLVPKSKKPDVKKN
substance,measurement,value
recombinant K13 (TrK13-WT) (domain or fragment),percent reduction of binding of heme-bound TrK13-WT against heme-free TrK13-WT,26%
